According to patent publication US20170157149A1 (REGENTS OF THE UNIVERSITY OF MICHIGAN, published 2017):
No end group written: not given here.

Target: T1, scavenger receptor class BI (SR-BI) (UniProt Q8WTV0 1-552, limits assumed)
T1 sequence (looked up): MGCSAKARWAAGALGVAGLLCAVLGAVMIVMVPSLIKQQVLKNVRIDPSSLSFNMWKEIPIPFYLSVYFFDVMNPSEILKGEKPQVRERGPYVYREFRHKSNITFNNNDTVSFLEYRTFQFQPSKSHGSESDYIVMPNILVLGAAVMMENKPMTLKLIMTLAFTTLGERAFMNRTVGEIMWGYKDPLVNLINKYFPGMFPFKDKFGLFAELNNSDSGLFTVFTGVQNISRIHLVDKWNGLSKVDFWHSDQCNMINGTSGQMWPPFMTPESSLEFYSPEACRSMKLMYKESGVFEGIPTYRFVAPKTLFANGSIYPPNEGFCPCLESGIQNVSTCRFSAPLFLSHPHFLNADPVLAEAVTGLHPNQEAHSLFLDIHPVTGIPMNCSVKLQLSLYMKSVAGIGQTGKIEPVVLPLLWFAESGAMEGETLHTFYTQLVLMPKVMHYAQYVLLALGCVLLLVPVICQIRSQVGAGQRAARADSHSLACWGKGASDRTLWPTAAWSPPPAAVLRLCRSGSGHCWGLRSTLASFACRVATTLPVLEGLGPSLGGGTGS
Assay: cell-based or functional assay

B1: DIO labeled HDL nanoparticles (synthetic HDL of 22 A peptide and lipids) (other)
peptide: PVLDLFRELLNELLEALKQKLK
modifications: also: sHDL lipid nanoparticle with lipids, DIO tracer label in particle, acetate salt
blocking of uptake of DIO labeled HDL nanoparticles by 10 fold excess of HDL (fluorescence microscopy): > 90%
